{
  "source": "the RNAGym collection of RNA variant scans (doi:10.1093/molbev/msab373)",
  "parents": {"B1": {"name": "Azoarcus group I ribozyme (parent)", "chain": "GUGCCUUGCGCCGGGAAACCACGCAAGGGAUGGUGUCAAAUUCGGCGAAACCUAAGCGCCCGCCCGGGCGUAUGGCAACGCCGAGCCAAGCUUCGGCGCCUGCGCCGAUGAAGGUGUAGAGACUAGACGGCACCCACCUAAGGCAAACGCUAUGGUGAAGGCAUAGUCCAGGGAGUGGCGAAAGUCACACAAACCGG"}},
  "data": [
    {"variants_of": "B1", "assay": "reverse-splicing fitness (ratio to wild type); higher = more active; in vitro selection; Mg2+ level not given", "method_in_brief": "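An in vitro group I ribozyme library with randomized positions was T7-transcribed and gel-purified. In triplicate, 10 pmol RNA in EPPS pH 7.5 was reacted with 50 pmoles of a 30-nt RNA substrate for 1 h at 37 °C across several added MgCl2 levels (1–48 mM), then stopped with EDTA. Products were reverse transcribed from a substrate-complementary primer, PCR-amplified and sequenced (HiSeq 4000). Fitness is a variant's read proportion after selection over that before, normalised to wild type.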", "values": [
      {"variant": "C82A A111C A120U A145G C150G C169G U176C", "reverse-splicing fitness": 0.00768},
      {"variant": "C82A A111C A120U A145G C150G C169G U176G", "reverse-splicing fitness": 0.00456},
      {"variant": "C82A A111C A120U A145G C150G C169G U176A", "reverse-splicing fitness": 0.0101},
      {"variant": "C82A A111C A120G A145G C150U C169U U176A", "reverse-splicing fitness": 0.0155},
      {"variant": "C82A A111C A120G A145G C150U C169U U176G", "reverse-splicing fitness": 0.00525},
      {"variant": "C82A A111C A120G A145G C150U C169U U176C", "reverse-splicing fitness": 0.0131},
      {"variant": "C82A A111C A120U A145C C150A U176G", "reverse-splicing fitness": 0.00289},
      {"variant": "C82A A111C A120U A145C C150A U176A", "reverse-splicing fitness": 0.00393},
      {"variant": "C82A A111C A120U A145C C150A U176C", "reverse-splicing fitness": 0.00528},
      {"variant": "C82A A111C A120G C150A C169G", "reverse-splicing fitness": 0.00885},
      {"variant": "C82A A111C A120G C150A C169U", "reverse-splicing fitness": 0.00723},
      {"variant": "C82A A111C A120G C150A C169A", "reverse-splicing fitness": 0.00919},
      {"variant": "C82A A111C A120U A145G C150G C169U U176G", "reverse-splicing fitness": 0.00484},
      {"variant": "C82A A111C A120U A145G C150G C169U U176A", "reverse-splicing fitness": 0.00855},
      {"variant": "C82A A111C A120U A145G C150G C169U U176C", "reverse-splicing fitness": 0.00842},
      {"variant": "C82A A111C A120G A145U C169G", "reverse-splicing fitness": 0.00868},
      {"variant": "C82A A111C A120G A145U C169U", "reverse-splicing fitness": 0.00891},
      {"variant": "C82A A111C A120G A145U C169A", "reverse-splicing fitness": 0.00893},
      {"variant": "C82A A111C A120G A145U C150A C169U U176C", "reverse-splicing fitness": 0.0127},
      {"variant": "C82A A111C A120G A145U C150A C169U U176G", "reverse-splicing fitness": 0.00563},
      {"variant": "C82A A111C A120G A145U C150A C169U U176A", "reverse-splicing fitness": 0.017},
      {"variant": "C82A A111C A120U A145U C150A", "reverse-splicing fitness": 0.00598},
      {"variant": "C82A A111C A120U A145U C150G", "reverse-splicing fitness": 0.00626},
      {"variant": "C82A A111C A120U A145G C150U C169G U176G", "reverse-splicing fitness": 0.00299},
      {"variant": "C82A A111C A120U A145G C150U C169G U176A", "reverse-splicing fitness": 0.00597},
      {"variant": "C82A A111C A120U A145G C150U C169G U176C", "reverse-splicing fitness": 0.00509},
      {"variant": "C82A A111C A120G A145U C150G", "reverse-splicing fitness": 0.00701},
      {"variant": "C82A A111C A120G A145U C150U", "reverse-splicing fitness": 0.0124},
      {"variant": "C82A A111C A120G A145U C150A", "reverse-splicing fitness": 0.00771},
      {"variant": "C82A A111C A120G A145U U176A", "reverse-splicing fitness": 0.0134},
      {"variant": "C82A A111C A120G A145U U176C", "reverse-splicing fitness": 0.0197},
      {"variant": "C82A A111C A120G A145U U176G", "reverse-splicing fitness": 0.00466},
      {"variant": "C82A A111C A120U A145C C150A C169A U176A", "reverse-splicing fitness": 0.00291},
      {"variant": "C82A A111C A120U A145C C150A C169A U176G", "reverse-splicing fitness": 0.00275},
      {"variant": "C82A A111C A120U A145C C150A C169A U176C", "reverse-splicing fitness": 0.00256},
      {"variant": "C82A A111C A120G A145G C150U C169G U176G", "reverse-splicing fitness": 0.00582},
      {"variant": "C82A A111C A120G A145G C150U C169G U176A", "reverse-splicing fitness": 0.0123},
      {"variant": "C82A A111C A120G A145G C150U C169G U176C", "reverse-splicing fitness": 0.0182},
      {"variant": "C82A A111C A120U A145G C150U C169U U176G", "reverse-splicing fitness": 0.00315},
      {"variant": "C82A A111C A120U A145G C150U C169U U176A", "reverse-splicing fitness": 0.00523},
      {"variant": "C82A A111C A120U A145G C150U C169U U176C", "reverse-splicing fitness": 0.00469},
      {"variant": "C82A A111C A120G A145U C150G C169G U176G", "reverse-splicing fitness": 0.00527}
    ]}
  ]
}
